Data on 31 sequences can be found in the Immune Epitope Database (IEDB).

One may read the IC50 as the concentration that inhibits the measured activity by half.

The target of this test is HLA-A*02:01. As to the kind of experiment: IEDB peptide-MHC binding, purified MHC/competitive/radioactivity; ≥ and ≤ were set here for values at or beyond the usual limits of such assays. The note with it: source organism: Human alphaherpesvirus 1.

For the sequence VMAAVCLQI, the IC50 amounted to 15 nM. With VTFDTLFMV, the IC50 is 8.7 nM. With VTTDSVRAL, the IC50 was 5350 nM. Take VVTAIVYVV: the IC50 was 265 nM. With WLETELVFV the figure was 85 nM.

Turning to WLLQITVLL, the IC50 is 130 nM. YFHALVYFV: the IC50 came to 133 nM. With YIFSYDAYT the figure was 310 nM; with YILNKPVFI, 52 nM.

On to YLACELLPA, for which the IC50 came to 4.7 nM. Consider YLACLAAVI, for which the IC50 was found to be 61 nM. To YLALLEACL belongs 7.5 nM; to YLANGGFLI, 0.56 nM; to YLARAAGLV, 210 nM. As to YLATGALLA, the IC50 stood at 55 nM. As for YLCDNFCPA, the IC50 was 27 nM.

In the case of YLCPVLVFV, the IC50 is 9.5 nM. YLCSLAVVL: the IC50 is 17 nM. To YLDEAGGHL belongs 23 nM; to YLGAFLSVL, 16 nM. For YLLEQLNNL, the IC50 was 5.7 nM.

As for YLLGRPPNA, the IC50 came to 12 nM.

As for YLLNYAGRI, the IC50 came to 194 nM.

As to YLREYVTRL, the IC50 turned out to be 115 nM. With YLSEEMMEL the figure was 6.3 nM.

Regarding YLSRTQRLA, the IC50 was 110 nM. To YMAKLHAYL belongs 11 nM; to YTFWRLDLV, 30 nM; to YVLHFACLV, 7.6 nM. With YVLNSQIAV the figure was 121 nM.

On to YVPPDMRGV, for which the IC50 is 511 nM.
